From the supplement of paper PMC9112550, “Optimization of the antimicrobial peptide Bac7 by deep mutational scanning” (BMC Biology, 2022)

Test system: Escherichia coli TOP10
Test: shrunken log2 fold change of peptide-encoding DNA abundance (4.5 h post-induction vs induction); higher = less antimicrobial activity (less host growth inhibition)
Settings: time post-induction: 4.5 h; library: site-saturation at positions 5, 18, 19, 20
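Also: peptides expressed intracellularly from a pBAD plasmid library in pooled LB shake-flask culture, induced with 0.3% L-arabinose, DNA abundance read by NGS, three biological replicates, DESeq2 with apeglm shrinkage.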

Row | Sequence | shrunken log2 fold change
1 | RRIRKRPPRLPRPRPRPMNEPRP | 0.22
2 | RRIRVRPPRLPRPRPRPTMKPRP | -0.461
3 | RRIRPRPPRLPRPRPRPLQEPRP | 0.18
4 | RRIRCRPPRLPRPRPRPFHKPRP | -0.0775
5 | RRIRQRPPRLPRPRPRPDIRPRP | -0.154
6 | RRIRTRPPRLPRPRPRPMMCPRP | -0.59
7 | RRIRCRPPRLPRPRPRPPKEPRP | 0.203
8 | RRIRIRPPRLPRPRPRPVLDPRP | 0.0135
9 | RRIRARPPRLPRPRPRPIEIPRP | 0.0613
10 | RRIRCRPPRLPRPRPRPISVPRP | 0.0666
11 | RRIRNRPPRLPRPRPRPHGWPRP | 0.127
12 | RRIRSRPPRLPRPRPRPVPAPRP | 0.122
13 | RRIRCRPPRLPRPRPRPQEAPRP | 0.0141
14 | RRIRYRPPRLPRPRPRPWGAPRP | -0.315
15 | RRIRWRPPRLPRPRPRPVHKPRP | 0.0181
16 | RRIRMRPPRLPRPRPRPSDTPRP | 0.232
17 | RRIRFRPPRLPRPRPRPSTKPRP | 0.0858
18 | RRIRERPPRLPRPRPRPMFEPRP | 0.000206
19 | RRIRFRPPRLPRPRPRPVGPPRP | 0.405
20 | RRIRGRPPRLPRPRPRPPWSPRP | 0.76
21 | RRIRNRPPRLPRPRPRPPMHPRP | 0.0449
22 | RRIRYRPPRLPRPRPRPMKYPRP | -0.00968
23 | RRIRWRPPRLPRPRPRPQSHPRP | 0.105
24 | RRIRDRPPRLPRPRPRPENAPRP | 0.37
25 | RRIRIRPPRLPRPRPRPIVDPRP | -0.0819

Row | Sequence | shrunken log2 fold change
26 | RRIRRRPPRLPRPRPRPDMEPRP | -0.0393
27 | RRIRRRPPRLPRPRPRPPAMPRP | 0.814
28 | RRIRWRPPRLPRPRPRPFKHPRP | -0.405
29 | RRIRHRPPRLPRPRPRPKNSPRP | -0.487
30 | RRIRRRPPRLPRPRPRPILQPRP | 1.83
31 | RRIRYRPPRLPRPRPRPCSWPRP | -0.272
32 | RRIRIRPPRLPRPRPRPCRHPRP | -0.159
33 | RRIRKRPPRLPRPRPRPHNRPRP | -0.137
34 | RRIRRRPPRLPRPRPRPCDTPRP | -0.092
35 | RRIRTRPPRLPRPRPRPFGAPRP | 0.334
36 | RRIRERPPRLPRPRPRPHRMPRP | -0.305
37 | RRIRFRPPRLPRPRPRPSRYPRP | -0.0764
38 | RRIRMRPPRLPRPRPRPIMPPRP | 0.0288
39 | RRIRPRPPRLPRPRPRPTDMPRP | 0.157
40 | RRIRARPPRLPRPRPRPAALPRP | 0.805
41 | RRIRPRPPRLPRPRPRPYCHPRP | -0.241
42 | RRIRGRPPRLPRPRPRPPKFPRP | 0.0991
43 | RRIRPRPPRLPRPRPRPKINPRP | -0.32
44 | RRIRVRPPRLPRPRPRPQVKPRP | -0.016
45 | RRIRKRPPRLPRPRPRPLSAPRP | 0.402
46 | RRIRNRPPRLPRPRPRPLDQPRP | -0.266
47 | RRIRDRPPRLPRPRPRPLASPRP | 0.171
48 | RRIRRRPPRLPRPRPRPGSAPRP | 0.378
49 | RRIRWRPPRLPRPRPRPLGPPRP | 0.478
50 | RRIRERPPRLPRPRPRPDYSPRP | -1.47

Row | Sequence | shrunken log2 fold change
51 | RRIRMRPPRLPRPRPRPKAAPRP | 3.33
52 | RRIRLRPPRLPRPRPRPCLMPRP | -0.266
53 | RRIRQRPPRLPRPRPRPPMTPRP | -0.268
54 | RRIRWRPPRLPRPRPRPRPFPRP | 0.56
55 | RRIRTRPPRLPRPRPRPYIQPRP | -0.274
56 | RRIRFRPPRLPRPRPRPTPNPRP | 0.296
57 | RRIRARPPRLPRPRPRPAKGPRP | 0.342
58 | RRIRGRPPRLPRPRPRPKFTPRP | 0.12
59 | RRIRARPPRLPRPRPRPEDTPRP | 0.625
60 | RRIRERPPRLPRPRPRPPDPPRP | 0.106
61 | RRIRSRPPRLPRPRPRPHSVPRP | -0.036
62 | RRIRRRPPRLPRPRPRPFHQPRP | -0.191
63 | RRIRPRPPRLPRPRPRPGMDPRP | -0.00631
64 | RRIRPRPPRLPRPRPRPEFLPRP | -0.101
65 | RRIRCRPPRLPRPRPRPHPCPRP | -0.579
66 | RRIRRRPPRLPRPRPRPQGNPRP | 0.0869
67 | RRIRWRPPRLPRPRPRPWPNPRP | 0.0899
68 | RRIRGRPPRLPRPRPRPDQPPRP | 1.01
69 | RRIRHRPPRLPRPRPRPFPKPRP | 0.0904
70 | RRIRDRPPRLPRPRPRPFCWPRP | 0.445
71 | RRIRIRPPRLPRPRPRPIRIPRP | 0.0736
72 | RRIRGRPPRLPRPRPRPKTCPRP | 0.206
73 | RRIRNRPPRLPRPRPRPHWTPRP | 0.0333
74 | RRIRRRPPRLPRPRPRPCWAPRP | 0.153
75 | RRIRFRPPRLPRPRPRPDANPRP | -0.138

Row | Sequence | shrunken log2 fold change
76 | RRIRTRPPRLPRPRPRPRMAPRP | 0.288
77 | RRIRFRPPRLPRPRPRPPYYPRP | -0.464
78 | RRIRTRPPRLPRPRPRPCYAPRP | -0.215
79 | RRIRKRPPRLPRPRPRPAVAPRP | 0.0118
80 | RRIRFRPPRLPRPRPRPHCCPRP | -0.166
81 | RRIRYRPPRLPRPRPRPSAWPRP | 0.199
82 | RRIRIRPPRLPRPRPRPMQTPRP | -0.0288
83 | RRIRARPPRLPRPRPRPRRRPRP | 0.888
84 | RRIRKRPPRLPRPRPRPEVHPRP | 0.013
85 | RRIRSRPPRLPRPRPRPRYLPRP | -0.329
86 | RRIRKRPPRLPRPRPRPMYLPRP | 0.239
87 | RRIRKRPPRLPRPRPRPPWTPRP | 0.527
88 | RRIRGRPPRLPRPRPRPWDEPRP | 0.0077
89 | RRIRVRPPRLPRPRPRPVEYPRP | -1.63
90 | RRIRWRPPRLPRPRPRPPSGPRP | 0.127
91 | RRIRWRPPRLPRPRPRPLMMPRP | 0.0198
92 | RRIRTRPPRLPRPRPRPPDSPRP | -0.0615
93 | RRIRERPPRLPRPRPRPKCNPRP | 0.0249
94 | RRIRRRPPRLPRPRPRPYKLPRP | -0.669
95 | RRIRLRPPRLPRPRPRPSTYPRP | -0.205
96 | RRIRGRPPRLPRPRPRPHGNPRP | 0.365
97 | RRIRMRPPRLPRPRPRPNTCPRP | -0.145
98 | RRIRYRPPRLPRPRPRPVEMPRP | -1.52
99 | RRIRDRPPRLPRPRPRPEMMPRP | 0.71
100 | RRIRKRPPRLPRPRPRPKSLPRP | 0.107

Row | Sequence | shrunken log2 fold change
101 | RRIRDRPPRLPRPRPRPACIPRP | 0.194
102 | RRIRDRPPRLPRPRPRPPYHPRP | -0.302
103 | RRIRPRPPRLPRPRPRPVRKPRP | 0.73
104 | RRIRMRPPRLPRPRPRPYEEPRP | -0.228
105 | RRIRLRPPRLPRPRPRPRVAPRP | 0.272
106 | RRIRMRPPRLPRPRPRPVRGPRP | 1.18
107 | RRIRTRPPRLPRPRPRPQSTPRP | -0.236
108 | RRIRCRPPRLPRPRPRPAWSPRP | 0.15
109 | RRIRWRPPRLPRPRPRPGMRPRP | 0.976
110 | RRIRHRPPRLPRPRPRPLNLPRP | 0.00301
111 | RRIRARPPRLPRPRPRPHIVPRP | -0.000968
112 | RRIRYRPPRLPRPRPRPCVAPRP | -0.11
113 | RRIRDRPPRLPRPRPRPTSAPRP | 0.418
114 | RRIRMRPPRLPRPRPRPEWHPRP | 0.161
115 | RRIRRRPPRLPRPRPRPEFAPRP | 0.129
116 | RRIRRRPPRLPRPRPRPKERPRP | -0.327
117 | RRIRFRPPRLPRPRPRPMIMPRP | 0.234
118 | RRIRNRPPRLPRPRPRPSNFPRP | -0.31
119 | RRIRFRPPRLPRPRPRPILKPRP | -0.43
120 | RRIRARPPRLPRPRPRPYRDPRP | -0.761
121 | RRIRIRPPRLPRPRPRPAAGPRP | 0.0506
122 | RRIRLRPPRLPRPRPRPFYWPRP | 0.228
123 | RRIRVRPPRLPRPRPRPPIRPRP | -0.0403
124 | RRIRHRPPRLPRPRPRPKTFPRP | -0.45
125 | RRIRMRPPRLPRPRPRPTNLPRP | -0.0631
